Test results taken from paper PMC12350670 (2025).

Key:
[1] = target: H4-Fc (anti-FAP VNAR H4 fused to the Fc of human IgG1) (nurse shark (Ginglyomostoma cirratum)); test: BLI
[2] = target: NGS2405-Fc (anti-FAP VNAR NGS2405 fused to the Fc of human IgG1) (nurse shark (Ginglyomostoma cirratum)); test: BLI

Kd [1]: 14.2 nM
Kd [2]: 79.5 nM
B1: recombinant mouse FAP (mFAP) (enzyme)
chain: MKTWLKTVFGVTTLAALALVVICIVLRPSRVYKPEGNTKRALTLKDILNGTFSYKTYFPNWISEQEYLHQSEDDNIVFYNIETRESYIILSNSTMKSVNATDYGLSPDRQFVYLESDYSKLWRYSYTATYYIYDLQNGEFVRGYELPRPIQYLCWSPVGSKLAYVYQNNIYLKQRPGDPPFQITYTGRENRIFNGIPDWVYEEEMLATKYALWWSPDGKFLAYVEFNDSDIPIIAYSYYGDGQYPRTINIPYPKAGAKNPVVRVFIVDTTYPHHVGPMEVPVPEMIASSDYYFSWLTWVSSERVCLQWLKRVQNVSVLSICDFREDWHAWECPKNQEHVEESRTGWAGGFFVSTPAFSQDATSYYKIFSDKDGYKHIHYIKDTVENAIQITSGKWEAIYIFRVTQDSLFYSSNEFEGYPGRRNIYRISIGNSPPSKKCVTCHLRKERCQYYTASFSYKAKYYALVCYGPGLPISTLHDGRTDQEIQVLEENKELENSLRNIQLPKVEIKKLKDGGLTFWYKMILPPQFDRSKKYPLLIQVYGGPCSQSVKSVFAVNWITYLASKEGIVIALVDGRGTAFQGDKFLHAVYRKLGVYEVEDQLTAVRKFIEMGFIDEERIAIWGWSYGGYVSSLALASGTGLFKCGIAVAPVSSWEYYASIYSERFMGLPTKDDNLEHYKNSTVMARAEYFRNVDYLLIHGTADDNVHFQNSAQIAKALVNAQVDFQAMWYSDQNHGISSGRSQNHLYTHMTHFLKQCFSLSD
modifications: biotin (EZ-link NHS-PEG4-biotin)
